This is an account of results in publication PMC6167383, “Regulatory control of DNA end resection by Sae2 phosphorylation” (Nature Communications, 2018).

Series [1] concerns the target T1, pSae2 λ (dephosphorylated) (Saccharomyces cerevisiae, UniProt P46946 1-345).
T1 sequence: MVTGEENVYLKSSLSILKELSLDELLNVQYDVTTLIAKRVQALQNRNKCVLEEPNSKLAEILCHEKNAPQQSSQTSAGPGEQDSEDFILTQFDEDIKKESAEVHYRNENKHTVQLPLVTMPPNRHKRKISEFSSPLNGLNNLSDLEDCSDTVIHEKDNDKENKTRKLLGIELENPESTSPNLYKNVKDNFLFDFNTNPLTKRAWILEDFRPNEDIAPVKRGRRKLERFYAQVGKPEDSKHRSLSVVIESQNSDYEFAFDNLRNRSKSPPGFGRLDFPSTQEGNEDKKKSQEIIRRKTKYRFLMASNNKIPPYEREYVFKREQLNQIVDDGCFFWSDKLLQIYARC
The series is described as follows: EMSA; lambda phosphatase-treated; 2 mM Mg2+; 25 mM Tris-acetate pH 7.5, 1 mM DTT, 2 mM Mg acetate, 0.1 mg/ml BSA, 1 nM DNA, 30 C; 1 mM ATP with MRX; 30 nM streptavidin where indicated; native PAGE in TBE. Conditions: protein: recombinant; tags: C-terminal His; N-terminal MBP cleaved with PreScission; label: 3' 32P-cordycepin; blunt before 3' labeling. (A gel shift assay detects complexes by their altered migration in electrophoresis.)

Series [2] deals with the molecule itself. The experiment in a line: SEC; Superose 6 10/300 GL, 50 mM Tris-HCl pH 7.5, 150 mM NaCl, 10% glycerol, 0.5 mM β-mercaptoethanol, 4 °C; ~75 μg of the Sae2 variant, mock-treated or treated with λ phosphatase for 90 min at 30 °C before loading; absorbance at 215 nm.
Series [3] deals with T2, S. cerevisiae Mre11-Rad50-Xrs2 complex (S. cerevisiae, UniProt P32829 1-692; P12753 1-1312; P33301 1-854).
T2 construct: Mre11, S. cerevisiae; Rad50, S. cerevisiae; Xrs2, S. cerevisiae; also called MRX; MRX complex; copies: + +
The series is described as follows: pull-down; MBP-tagged Sae2 on amylose resin (mock-treated or λ phosphatase-treated on the resin), 5 μg recombinant MRX, 1 h at 4 °C; wash 50 mM Tris-HCl pH 7.5, 2 mM EDTA, 80 mM NaCl, 0.2% NP40; eluted with 20 mM maltose; silver staining. Conditions: both partners purified.

Series [4] concerns the molecule itself. The series is described as follows: atomic force microscopy (particle volume analysis); 50 nM pSae2 in 40 mM Hepes pH 7, 5 mM MgCl2, 25 mM NaCl, 0.1 mM TCEP deposited on mica, imaged in air, without DNA; molecular weight from a published standard curve.

Substitutions are numbered along the chain they refer to. In names and notes the source's numbering stands.

T2 sequence (P32829 whole entry, chain 1 of 3): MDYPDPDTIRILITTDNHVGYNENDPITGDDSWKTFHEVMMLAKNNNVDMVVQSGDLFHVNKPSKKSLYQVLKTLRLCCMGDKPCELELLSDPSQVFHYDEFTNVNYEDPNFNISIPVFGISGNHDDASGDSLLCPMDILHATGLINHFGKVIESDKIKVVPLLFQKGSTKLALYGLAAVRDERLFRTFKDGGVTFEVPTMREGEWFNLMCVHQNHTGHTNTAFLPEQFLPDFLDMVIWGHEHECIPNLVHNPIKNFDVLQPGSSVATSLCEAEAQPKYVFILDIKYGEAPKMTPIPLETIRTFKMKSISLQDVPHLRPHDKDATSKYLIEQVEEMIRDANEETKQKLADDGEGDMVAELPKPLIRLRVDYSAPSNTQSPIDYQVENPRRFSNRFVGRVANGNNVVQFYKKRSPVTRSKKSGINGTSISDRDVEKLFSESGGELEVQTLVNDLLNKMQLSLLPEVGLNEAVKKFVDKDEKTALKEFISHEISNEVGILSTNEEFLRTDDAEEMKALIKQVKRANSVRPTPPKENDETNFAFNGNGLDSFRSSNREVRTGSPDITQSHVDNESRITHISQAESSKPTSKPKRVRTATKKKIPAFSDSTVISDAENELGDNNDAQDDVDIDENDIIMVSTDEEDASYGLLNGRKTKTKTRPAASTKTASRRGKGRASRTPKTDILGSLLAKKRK
T2 sequence (P12753 whole entry, chain 2 of 3): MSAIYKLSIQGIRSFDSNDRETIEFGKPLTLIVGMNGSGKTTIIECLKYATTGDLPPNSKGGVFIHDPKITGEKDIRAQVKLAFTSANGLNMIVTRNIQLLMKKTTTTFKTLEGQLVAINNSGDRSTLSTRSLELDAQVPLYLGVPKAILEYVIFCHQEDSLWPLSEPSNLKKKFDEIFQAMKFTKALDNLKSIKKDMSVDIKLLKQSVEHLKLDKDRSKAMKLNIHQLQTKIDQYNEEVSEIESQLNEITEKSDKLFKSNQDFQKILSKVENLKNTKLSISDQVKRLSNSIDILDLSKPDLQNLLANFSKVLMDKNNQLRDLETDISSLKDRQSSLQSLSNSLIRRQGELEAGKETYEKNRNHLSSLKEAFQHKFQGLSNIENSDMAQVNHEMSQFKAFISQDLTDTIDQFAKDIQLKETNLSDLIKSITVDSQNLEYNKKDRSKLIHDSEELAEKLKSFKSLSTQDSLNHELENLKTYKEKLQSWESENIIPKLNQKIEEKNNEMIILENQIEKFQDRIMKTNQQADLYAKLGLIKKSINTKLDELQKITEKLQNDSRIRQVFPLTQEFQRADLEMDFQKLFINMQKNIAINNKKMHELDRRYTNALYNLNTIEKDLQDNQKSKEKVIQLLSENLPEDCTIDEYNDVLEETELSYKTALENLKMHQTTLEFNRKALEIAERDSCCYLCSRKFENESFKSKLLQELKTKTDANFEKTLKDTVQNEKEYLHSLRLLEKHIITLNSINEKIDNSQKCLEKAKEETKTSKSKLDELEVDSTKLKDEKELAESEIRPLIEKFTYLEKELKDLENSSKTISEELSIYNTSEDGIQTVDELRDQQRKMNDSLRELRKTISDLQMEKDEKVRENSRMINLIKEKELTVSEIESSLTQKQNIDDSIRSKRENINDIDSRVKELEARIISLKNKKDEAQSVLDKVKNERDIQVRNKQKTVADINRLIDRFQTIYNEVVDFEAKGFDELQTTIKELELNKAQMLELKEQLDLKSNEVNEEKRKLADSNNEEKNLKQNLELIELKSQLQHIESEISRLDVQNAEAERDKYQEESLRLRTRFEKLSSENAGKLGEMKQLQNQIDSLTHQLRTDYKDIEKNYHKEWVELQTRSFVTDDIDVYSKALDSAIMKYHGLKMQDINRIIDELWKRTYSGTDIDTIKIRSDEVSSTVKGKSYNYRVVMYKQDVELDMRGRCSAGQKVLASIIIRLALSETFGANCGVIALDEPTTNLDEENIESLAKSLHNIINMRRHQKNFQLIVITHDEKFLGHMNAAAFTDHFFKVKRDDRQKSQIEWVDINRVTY
T2 sequence (P33301 whole entry, chain 3 of 3): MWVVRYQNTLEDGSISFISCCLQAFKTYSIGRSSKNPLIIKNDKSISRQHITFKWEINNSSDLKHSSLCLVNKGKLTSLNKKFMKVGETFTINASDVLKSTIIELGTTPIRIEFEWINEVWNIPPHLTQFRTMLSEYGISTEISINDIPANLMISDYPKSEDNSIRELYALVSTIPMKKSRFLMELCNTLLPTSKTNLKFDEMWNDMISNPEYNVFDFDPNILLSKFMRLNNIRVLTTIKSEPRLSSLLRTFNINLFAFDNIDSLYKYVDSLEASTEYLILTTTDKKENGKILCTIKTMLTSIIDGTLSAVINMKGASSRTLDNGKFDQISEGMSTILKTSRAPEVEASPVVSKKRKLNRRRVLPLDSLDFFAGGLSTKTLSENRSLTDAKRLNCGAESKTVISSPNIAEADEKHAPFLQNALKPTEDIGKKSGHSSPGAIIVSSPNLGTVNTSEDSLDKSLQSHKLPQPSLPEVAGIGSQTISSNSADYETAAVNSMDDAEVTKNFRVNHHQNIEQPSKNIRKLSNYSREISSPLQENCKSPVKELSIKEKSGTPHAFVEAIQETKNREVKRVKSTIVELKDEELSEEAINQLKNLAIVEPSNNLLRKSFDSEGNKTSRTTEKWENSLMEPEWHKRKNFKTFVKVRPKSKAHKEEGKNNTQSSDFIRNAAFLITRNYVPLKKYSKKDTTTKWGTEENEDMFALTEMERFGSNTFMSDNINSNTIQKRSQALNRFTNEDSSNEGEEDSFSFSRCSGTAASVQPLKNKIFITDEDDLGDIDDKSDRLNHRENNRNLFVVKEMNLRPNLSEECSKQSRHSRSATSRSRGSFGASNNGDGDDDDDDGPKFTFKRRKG

B1: 100 bp dsDNA (Bio100/Bio100c) (dsDNA)
DNA 1: GTAAGTGCCGCGGTGCGGGTGCCAGGGCGTGCCCTTGGGCTCCCCGGGCGCGTACTCCACCTCATAATCTTCTGCCATGGTCGTAGCAGCCTCCTGCATC
DNA 2: GATGCAGGAGGCTGCTACGACCATGGCAGAAGATTATGAGGTGGAGTACGCGCCCGGGGAGCCCAAGGGCACGCCCTGGCACCCGCACCGCGGCACTTAC
modifications: internal biotin-T in Bio100 (bold T; exact position not visible in the text)
Turning to B1, the binding result in series [1] is recorded as “binds”.

B2: pSae2 S267A, expressed in the presence of phosphatase inhibitors (natural protein, S. cerevisiae, UniProt P46946 1-345, looked up)
chain: T1 sequence with S267A
modifications: phosphorylated (prepared with phosphatase inhibitors; sites not listed)
notes: Sae2, S. cerevisiae, point mutant made in the pFB-MBP-Sae2-his plasmid; not shown: MBP, N-terminal, cleaved
In the case of B2, in series [2], the binding result was “binds”.

B3: full-length phosphorylated recombinant MBP-tagged pSae2 (mock-treated), on amylose resin (natural protein, S. cerevisiae, UniProt P46946 1-345, looked up)
chain: T1 sequence
modifications: phosphorylated (phosphatase inhibitors; mock-treated); sites not listed
notes: Sae2, S. cerevisiae, full-length polypeptide; The MBP tag was cleaved off only after elution of the complexes; also called MBP-tagged Sae2; MBP-Sae2-His; not shown: MBP, N-terminal, kept
Consider B3, for which the binding result in series [3] is given as “binds”.

B4: pSae2 S267E dephosphorylated with λ phosphatase (natural protein, S. cerevisiae, UniProt P46946 1-345, looked up)
chain: T1 sequence with S267E
modifications: dephosphorylated with λ phosphatase
notes: Sae2, S. cerevisiae, full-length polypeptide with S267E; also called pSae2 S267E λ; not shown: MBP, N-terminal, cleaved
In the case of B4, the binding result in series [2] is “binds”.

B5: full-length recombinant MBP-tagged Sae2 dephosphorylated with λ phosphatase on amylose resin (natural protein, S. cerevisiae, UniProt P46946 1-345, looked up)
chain: T1 sequence
modifications: dephosphorylated with λ phosphatase on the resin
notes: Sae2, S. cerevisiae, full-length polypeptide; also called non-phosphorylated MBP-tagged Sae2; not shown: MBP, N-terminal, kept
As to B5, the binding result in series [3] is “binds”.

B6: pSae2 S267E phosphomimicking variant, expressed in the presence of phosphatase inhibitors (natural protein, S. cerevisiae, UniProt P46946 1-345, looked up)
chain: T1 sequence with S267E
modifications: phosphorylated (prepared with phosphatase inhibitors; sites not listed)
notes: Sae2, S. cerevisiae, full-length polypeptide with S267E; not shown: MBP, N-terminal, cleaved
Consider B6, for which the binding result in series [2] was “binds”.

B7: hyperphosphorylated recombinant Sae2 (pSae2), expressed and purified with phosphatase inhibitors (natural protein, S. cerevisiae, UniProt P46946 1-345, looked up)
chain: T1 sequence
modifications: hyperphosphorylated (phosphatase inhibitors in culture and lysis buffer); estimate of 17 phosphorylation sites; sites not listed in the text
notes: Sae2, S. cerevisiae, full-length polypeptide (ends at residue 345 by the legend's 170-345); Tetramer by AFM volume analysis; also called phosphorylated Sae2; wt pSae2; not shown: MBP, N-terminal, cleaved
B7: the stoichiometry N (in general, the number of molecules, sites or subunits per partner or assembly) in series [4] was determined as 4.

B8: pSae2 ΔC95, lacking 95 C-terminal residues (domain or fragment, S. cerevisiae, UniProt P46946 1-250, looked up)
chain: MVTGEENVYLKSSLSILKELSLDELLNVQYDVTTLIAKRVQALQNRNKCVLEEPNSKLAEILCHEKNAPQQSSQTSAGPGEQDSEDFILTQFDEDIKKESAEVHYRNENKHTVQLPLVTMPPNRHKRKISEFSSPLNGLNNLSDLEDCSDTVIHEKDNDKENKTRKLLGIELENPESTSPNLYKNVKDNFLFDFNTNPLTKRAWILEDFRPNEDIAPVKRGRRKLERFYAQVGKPEDSKHRSLSVVIESQ
modifications: phosphorylated (named pSae2; sites not listed)
notes: Sae2, S. cerevisiae, lacking the 95 C-terminal residues; source: Sf9, purified as pSae2; not shown: MBP, N-terminal, cleaved
For B8, the binding result in series [2] is “binds”.
